Results published in patent publication US20170233703A1.
Blank lines part the entries; values can stand above or below the substance they belong to.

Legend:
[1] = target: IntC:dCas9C:Suntag containing the residues from 1154 to 1368 (Streptococcus pyogenes) (UniProt Q99ZW2)
[2] = target: IntC:dCas9C:VPR split at residue 713 (dCas9 from residue 714) (Streptococcus pyogenes) (UniProt Q99ZW2)
[3] = target: IntC:dCas9C-VRER:VPR split at residue 713 (two-output sensory switch, FIG. 27) (Streptococcus pyogenes) (UniProt Q99ZW2)
[4] = target: C-terminal dCas9 constituent split at residue 1153 fused to Suntag (Streptococcus pyogenes) (UniProt Q99ZW2)
[5] = target: dCas9M:IntN containing the residues from 714 to 1153 (Streptococcus pyogenes) (UniProt Q99ZW2)

Substance: dCas9M:IntN containing the residues from 714 to 1153 (from UniProt Q99ZW2)
TagBFP expression, three-input logic AND circuit of three split-dCas9 fragments, HEK293 cells [1]: 110 fold

Substance: dCas9N:IntN split at residue 713 (from UniProt Q99ZW2)
EYFP expression, two-input two-output sensory switch set by shRNA-FF5 and shRNA-FF4 [2]: 20 fold | mKate2 expression, two-input two-output sensory switch set by shRNA-FF5 and shRNA-FF4 [3]: 20 fold

TagBFP expression, three-input logic AND circuit (two split-dCas9 constituents and rapalog), HEK293 cells [4]: 140 fold
Substance: N-terminal dCas9 constituent split at residue 1153 (intein fusion not stated at the place of the experiment) (from UniProt Q99ZW2)

Substance: dCas9N containing dCas9 residues from 1 to 713, without intein fusion (from UniProt Q99ZW2)
TagBFP expression, three-input logic AND circuit of three split-dCas9 fragments, HEK293 cells [5]: 110 fold
